From patent US20240117038A1

Legend:
[1] = target: mouse CX3CR1 (mouse) (UniProt Q9Z0D9); assay: cell-based or functional assay
[2] = target: human CX3CR1 (human) (UniProt P49238); assay: cell-based or functional assay
Sequence of human CX3CR1 (human) (P49238 whole entry): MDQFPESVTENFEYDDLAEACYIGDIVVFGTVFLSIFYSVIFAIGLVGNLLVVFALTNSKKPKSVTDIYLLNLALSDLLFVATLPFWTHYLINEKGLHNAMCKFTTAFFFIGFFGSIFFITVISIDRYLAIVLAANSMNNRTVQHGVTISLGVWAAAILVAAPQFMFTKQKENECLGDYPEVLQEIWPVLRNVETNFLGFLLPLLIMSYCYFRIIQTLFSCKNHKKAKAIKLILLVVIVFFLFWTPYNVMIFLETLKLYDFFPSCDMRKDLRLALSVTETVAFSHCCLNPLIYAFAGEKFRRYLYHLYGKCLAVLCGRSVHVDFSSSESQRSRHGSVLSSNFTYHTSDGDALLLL

Sequence of mouse CX3CR1 (mouse) (Q9Z0D9 whole entry): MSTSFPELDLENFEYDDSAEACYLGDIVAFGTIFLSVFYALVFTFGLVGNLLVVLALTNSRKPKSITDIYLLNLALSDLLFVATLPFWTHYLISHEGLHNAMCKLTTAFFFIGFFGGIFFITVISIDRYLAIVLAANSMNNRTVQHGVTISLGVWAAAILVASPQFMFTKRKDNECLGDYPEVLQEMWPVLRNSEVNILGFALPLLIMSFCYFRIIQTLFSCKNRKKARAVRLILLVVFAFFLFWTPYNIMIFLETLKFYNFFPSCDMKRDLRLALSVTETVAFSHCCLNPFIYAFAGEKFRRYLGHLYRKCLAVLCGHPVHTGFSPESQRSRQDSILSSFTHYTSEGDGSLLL

EC50, ERK phosphorylation in CHO K1 mCX3CR1 cells [1]: 23 nM | EC50, ERK phosphorylation in CHO K1 huCX3CR1 cells [2]: 73 nM
Substance: mouse CX3CL1 (from UniProt O35188 25-337) (ligand)
